Legend:
[1] = molecular target: strep-CsoS1A (hexameric shell protein) (Halothiobacillus neapolitanus) (UniProt P45689)
[2] = molecular target: strep-CsoS1A (hexameric shell protein) (Halothiobacillus neapolitanus) (UniProt P45689); assay: native gel or EMSA; native 1% agarose protein gel (Tris-acetate-EDTA); proteins mixed in 50 mM Hepes, 150 mM NaCl, 30 min at room temperature; 2.5 μg CsoS1A or BSA, 8.4 μg CsoS2 or 3.5 μg MR variant (0.09 nmol); run 70 min at 60 V in 25 mM Tris, 200 mM glycine, pH 7.5; stained, quantified in FIJI

Chain of UniProt P45689 (P45689 whole entry): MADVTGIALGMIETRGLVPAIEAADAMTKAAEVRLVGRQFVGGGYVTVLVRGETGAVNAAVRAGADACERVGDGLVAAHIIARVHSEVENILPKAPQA

Question: How did the turbidity with 9 μM CsoS1A, compared to wtMR (fold against wtMR) [1] turn out when “6xHis-CsoS2B (full-length CsoS2, long form) (from UniProt O85041-1 1-869) (natural protein)” was run?
Answer: The turbidity with 9 μM CsoS1A, compared to wtMR (fold against wtMR) was 5.

Question: What about the percent of shell bound and shifted from its control position [2] of the same substance?
Answer: Its percent of shell bound and shifted from its control position is greater than 90%.

Question: For “6xHis-wtMR-strep (WT middle region of CsoS2, repeats 1 to 6) (domain or fragment)”, which percent less mobility shift of shell than with full-length CsoS2 [2] is on record?
Answer: The percent less mobility shift of shell than with full-length CsoS2 was 25%.
